Values quoted from earlier work in publication PMC5936680.

Target: Hemoglobin αβ dimer (Homo sapiens) (UniProt P69905)

Hemoglobin αβ dimer (from UniProt P69905)
Kd: 1 µM
